Measurements as given in US20240383982A1 (Genmab, published 2024).

Experiments:
[1] = molecular target: T1, pig (Sus scrofa) B7H4, full length, on HEK-293F cells (pig, UniProt Q7Z7D3 26-282 (human entry)); experiment: flow cytometry, HEK-293F cells transfected with pig B7H4 [panel Pig B7H4]
T1 construct: Uniprot F1SAY4; also called pig B7H4
T1 chain: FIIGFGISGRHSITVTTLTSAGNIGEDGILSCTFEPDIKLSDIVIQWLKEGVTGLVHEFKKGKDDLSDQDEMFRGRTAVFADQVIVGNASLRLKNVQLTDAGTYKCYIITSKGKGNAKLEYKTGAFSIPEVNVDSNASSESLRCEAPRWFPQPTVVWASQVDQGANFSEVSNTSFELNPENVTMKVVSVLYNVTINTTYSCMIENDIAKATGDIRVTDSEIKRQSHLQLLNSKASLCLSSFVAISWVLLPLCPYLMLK
Protocol: (§1) Cells (3×10⁴ cells/well) were incubated in polystyrene 96-well round-bottom plates (Greiner bio-one, cat. no. 650180) with serial dilutions of antibodies (ranging from 0.000458 to 30 μg/mL in 4-fold dilution steps) in 100 μL PBS/0.1% BSA/0.02% azide (staining buffer) at 4° C. for 30 min. Experiments were performed in technical duplicate. After washing twice in staining buffer, cells were incubated in 50 μL secondary antibody at 4° C. for 30 min. As a secondary antibody, R-Phycoerythrin (PE)-conjugated goat-anti-human IgG F(ab′)₂ (1:500 in FACS buffer; Jackson ImmunoResearch Laboratories, Inc., West Grove, PA, cat. no. 109-116-098), was used. Cells were washed twice in staining buffer, re-suspended in 30 μL FACS buffer containing Topro-3 (1:10,000 dilution) and analyzed on an iQue Screener (Intellicyt Corporation, USA). Binding curves were analyzed using non-linear regression (sigmoidal dose-response with variable slope) using GraphPad Prism V7.02 software (GraphPad Software, San Diego, CA, USA).

[2] = molecular target: T2, mouse B7H4 ECD-His (R&D Systems, cat. no. 2154-B7-050) (mouse, UniProt Q7TSP5 29-256); experiment: BLI (Octet HTX); antibody on anti-human IgG Fc capture sensor, mouse B7H4 ECD-His in solution; 1st experiment
T2 construct: Bought ECD-His protein (26.6 kDa); also called mouse B7H4 extracellular domain
T2 sequence: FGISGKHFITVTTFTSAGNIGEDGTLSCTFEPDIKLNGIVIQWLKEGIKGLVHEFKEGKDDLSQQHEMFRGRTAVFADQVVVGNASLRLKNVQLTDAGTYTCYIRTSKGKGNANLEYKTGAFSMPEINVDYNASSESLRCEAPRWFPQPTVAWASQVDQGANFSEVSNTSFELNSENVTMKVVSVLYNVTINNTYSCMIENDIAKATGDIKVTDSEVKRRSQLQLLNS
Protocol: (§2) Target binding affinity of B7H4 antibodies was determined by label-free biolayer interferometry (BLI) on an Octet HTX instrument (FortéBio). Experiments were carried out while shaking at 1,000 RPM at 30° C. […] Anti-Human IgG Fc Capture (AHC) biosensors (FortéBio, cat. no. 18-5060) were pre-conditioned by exposure to 10 mM glycine (Sigma-Aldrich, cat. no. 15527) buffer pH 1.7 for 5 s, followed by neutralization in Sample Diluent (FortéBio, cat. no. 18-1048) for 5 s; both steps were repeated 2 times. Next, AHC sensors were loaded with antibody (1 μg/mL in Sample diluent) for 600 s. […] The theoretical molecular mass of human B7H4 and mouse B7H4 (as ECD-His tagged molecules) based on their amino acid sequences (26.8 kDa and 26.6 kDa respectively) were used for calculations. For each antibody a reference sensor was used, which was incubated with Sample Diluent instead of antigen. AHC sensors were regenerated by exposure to 10 mM glycine buffer pH 1.7 for 5 s, followed by neutralization in Sample Diluent for 5 s; both steps were repeated twice. Subsequently sensors were loaded again with antibody for the next cycle of kinetics measurements.
(§3) Data were acquired using Data Acquisition Software v9.0.0.49d (FortéBio) and analyzed with Data Analysis Software v9.0.0.12 (FortéBio). Data traces were corrected per antibody by subtraction of the reference sensor. The Y-axis was aligned to the last 10 s of the baseline, Interstep Correction alignment to dissociation and Savitzky-Golay filtering were applied. Data traces with a response<0.05 nm were excluded from analysis. The data was fitted with the 1:1 Global Full fit model using a window of interest for the association and dissociation times set at 300 s and 200 s respectively.

[3] = molecular target: T3, rabbit (Oryctolagus cuniculus) B7H4, full length, on HEK-293F cells (rabbit, UniProt Q7Z7D3 25-282 (human entry)); experiment: flow cytometry, transiently transfected HEK-293F cells
T3 construct: Uniprot G1TQE8; also called rabbit B7H4
T3 chain: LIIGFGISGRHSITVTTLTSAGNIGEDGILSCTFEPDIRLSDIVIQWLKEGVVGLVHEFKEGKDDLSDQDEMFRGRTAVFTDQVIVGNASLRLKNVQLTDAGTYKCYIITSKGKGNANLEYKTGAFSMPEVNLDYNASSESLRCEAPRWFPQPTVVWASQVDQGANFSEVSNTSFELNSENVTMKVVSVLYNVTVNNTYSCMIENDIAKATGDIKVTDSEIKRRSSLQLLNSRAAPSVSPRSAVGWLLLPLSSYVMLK

[4] = molecular target: T2, mouse B7H4 ECD-His (R&D Systems, cat. …); experiment: BLI (Octet HTX); antibody on anti-human IgG Fc capture sensor, mouse B7H4 ECD-His in solution; 2nd experiment
Protocol: as §2, §3

[5] = molecular target: T4, rat (Rattus norvegicus) B7H4, full length, on HEK-293F cells (rat, UniProt Q501W4 25-257); experiment: flow cytometry, HEK-293F cells transfected with rat B7H4 [panel Rat B7H4]
T4 construct: Uniprot Q501W4; also called rat B7H4
T4 sequence: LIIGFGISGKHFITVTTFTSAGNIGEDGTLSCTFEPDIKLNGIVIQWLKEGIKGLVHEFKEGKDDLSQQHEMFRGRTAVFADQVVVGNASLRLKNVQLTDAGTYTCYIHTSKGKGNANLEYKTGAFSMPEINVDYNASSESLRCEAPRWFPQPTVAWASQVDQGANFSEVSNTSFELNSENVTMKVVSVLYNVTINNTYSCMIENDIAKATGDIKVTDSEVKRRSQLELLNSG
Protocol: as §1

[6] = molecular target: T5, B7H4-IgV/B7H3-IgC; experiment: flow cytometry, HEK cells transiently transfected with B7H4-IgV/B7H3-IgC, PE anti-human IgG F(ab')2 [panel B7H4-IgV/B7H3-IgC]
T5 construct: also called chimeric molecule with the IgV domain of B7H4 and the IgC domain of B7H3
T5 full-length chimeric protein on cells: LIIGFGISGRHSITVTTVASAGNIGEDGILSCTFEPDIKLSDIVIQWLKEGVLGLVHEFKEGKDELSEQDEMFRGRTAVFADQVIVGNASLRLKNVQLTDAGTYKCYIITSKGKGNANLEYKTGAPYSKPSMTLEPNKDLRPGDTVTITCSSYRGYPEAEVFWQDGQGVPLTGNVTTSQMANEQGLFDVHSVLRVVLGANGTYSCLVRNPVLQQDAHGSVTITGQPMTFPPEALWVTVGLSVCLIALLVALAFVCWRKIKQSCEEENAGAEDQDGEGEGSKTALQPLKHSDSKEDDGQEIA
Protocol: After washing twice in FACS buffer, cells were incubated with secondary antibody at 4° C. for 30 min. […] Next, cells were washed twice in FACS buffer, re-suspended in 20 μL FACS buffer and analyzed on an iQue Screener (Intellicyt Corporation, USA).
Further experiments were conducted to study the B7H4 domain specificity of the B7H4 antibodies in more detail, by analysis of full dose-response curves.

[7] = molecular target: T6, recombinant hIgG1 Fc-tagged cynomolgus monkey B7H4 (Creative BioMart, cat. no. VTCN1-1517R) (cynomolgus monkey, UniProt Q7Z7D3 25-259 (human entry)); experiment: BLI (Octet HTX); Fc-tagged cynomolgus B7H4 coupled to AR2G sensor, bispecific antibody in solution (monovalent B7H4 binding); 1st experiment
T6 construct: Bought protein; also called cynomolgus monkey B7H4 extracellular domain
T6 sequence: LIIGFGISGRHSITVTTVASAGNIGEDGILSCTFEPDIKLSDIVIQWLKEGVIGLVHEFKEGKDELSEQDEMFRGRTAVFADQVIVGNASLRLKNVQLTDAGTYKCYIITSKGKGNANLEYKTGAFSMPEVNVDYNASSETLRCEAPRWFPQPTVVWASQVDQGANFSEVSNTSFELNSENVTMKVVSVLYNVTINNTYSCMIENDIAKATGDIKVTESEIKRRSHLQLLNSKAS
Protocol: In addition, the affinity of for cynomolgus monkey B7H4 was determined by BLI. […] Amine Reactive 2nd Generation (AR2G) biosensors (FortéBio, cat. no. 18-5092) were activated by reaction with 20 mM EDC (N-(3-Dimethylaminopropyl)-N′-ethylcarbodiimide hydrochloride) (FortéBio, cat. no. 18-1033) and 10 mM s-NHS (N-hydroxysulfosuccinimide sodium salt) (FortéBio, cat. no. 18-1067) for 300 s. The activated sensors were loaded with 10 μg/mL recombinant hIgG1 Fc-tagged cynomolgus monkey B7H4 (Creative BioMart, cat. no. VTCN1-1517R) in 10 mM Sodium Acetate pH 4.0 (FortéBio, cat. no. 18-1068) for 600 s and quenched with 1 M ethanolamine pH 8.5 (FortéBio, cat. no. 18-1071) for 300 s. […] A molecular mass of 150 kDa of the antibodies was used for calculations. For each antibody a reference sensor was used, which was incubated with Sample Diluent instead of antibody.
as §3, with “100” for “300”

B1: IgG1-B7H4-C2-FEAR (antibody, V domains shown)
VH: EVQLVQSGAEVKKPGASVKVSCKASGYTFTSYWIGWVRQAPGQGLEWIGDIYPGGGYTNYNEKFKGRVTITRDTSTSTAYLELSSLRSEDTAVYYCARLDGSSYRGAMDSWGQGTLVTVSS
VL: DIQMTQSPSSLSASVGDRVTITCKASQGFNKYVAWYQQKPGKAPKLLIYYTSTLQPGVPSRFSGSGSGRDYTLTISSLQPEDFATYYCLQYGNLLYAFGQGTKVEIKR
notes: Full length IgG1 FEAR, kappa; variable domains from WO2014159835
binding result [1]: binds
Kd [2]: 24 nM
koff [2]: 0.00077 s⁻¹
kon [2]: 33000 M⁻¹ s⁻¹
binding result [3]: binds
Kd [4]: 2.1 nM
koff [4]: 0.00013 s⁻¹
kon [4]: 63000 M⁻¹ s⁻¹
binding result [5]: binds

B2: IgG1-B7H4-C3-FEAR (antibody, V domains shown)
VH: EVQLVQSGAEVKKPGASVKVSCKASGYTFTNFWIHWVRQAPGQGLEWIGEIDPSDSYTNYNQKFKGRVTITRDTSTSTAYLELSSLRSEDTAVYYCAREITTVDYWGQGTLVTVSS
VL: DIQMTQSPSSLSASVGDRVTITCSATSSISYMHWYQQKPGKAPKGWIYDTSKLAHGVPSRFSGSGSGTDFTLTISSLQPEDFATYYCHQRRSYPFTFGQGTKVEIKR
notes: as for B1
binding result [1]: no binding (tested: 30 µg/ml)

B3: bsIgG1-huCD3-H101G-FEALxB7H4-C2-FEAR (bispecific antibody)
heavy 1: not shown
light 1: not shown
heavy 2: EVQLVQSGAEVKKPGASVKVSCKASGYTFTSYWIGWVRQAPGQGLEWIGDIYPGGGYTNYNEKFKGRVTITRDTSTSTAYLELSSLRSEDTAVYYCARLDGSSYRGAMDSWGQGTLVTVSSASTKGPSVFPLAPSSKSTSGGTAALGCLVKDYFPEPVTVSWNSGALTSGVHTFPAVLQSSGLYSLSSVVTVPSSSLGTQTYICNVNHKPSNTKVDKRVEPKSCDKTHTCPPCPAPEFEGGPSVFLFPPKPKDTLMISRTPEVTCVVVAVSHEDPEVKFNWYVDGVEVHNAKTKPREEQYNSTYRVVSVLTVLHQDWLNGKEYKCKVSNKALPAPIEKTISKAKGQPREPQVYTLPPSREEMTKNQVSLTCLVKGFYPSDIAVEWESNGQPENNYKTTPPVLDSDGSFFLYSRLTVDKSRWQQGNVFSCSVMHEALHNHYTQKSLSLSPGK
light 2: DIQMTQSPSSLSASVGDRVTITCKASQGFNKYVAWYQQKPGKAPKLLIYYTSTLQPGVPSRFSGSGSGRDYTLTISSLQPEDFATYYCLQYGNLLYAFGQGTKVEIKRTVAAPSVFIFPPSDEQLKSGTASVVCLLNNFYPREAKVQWKVDNALQSGNSQESVTEQDSKDSTYSLSSTLTLSKADYEKHKVYACEVTHQGLSSPVTKSFNRGEC
notes: also called bslgG1-huCD3-H101G-FEALxB7H4-C2-FEAR
EC50 (read off the curve) [6]: ~2 µg/mL

B4: bsIgG1-huCD3-FEALxB7H4-C1-FEAR (bispecific antibody)
heavy 1: not shown
light 1: not shown
heavy 2: QVQLQQWGAGLLKPSETLSLTCAVYGGSFSGYYWSWIRQPPGKGLEWIGEINHSGSTNYNPSLKSRVTISIDTSKNQFSLKLTSVTAADTAVFYCARGLFNWNFDSWGQGTLVTVSSASTKGPSVFPLAPSSKSTSGGTAALGCLVKDYFPEPVTVSWNSGALTSGVHTFPAVLQSSGLYSLSSVVTVPSSSLGTQTYICNVNHKPSNTKVDKRVEPKSCDKTHTCPPCPAPEFEGGPSVFLFPPKPKDTLMISRTPEVTCVVVAVSHEDPEVKFNWYVDGVEVHNAKTKPREEQYNSTYRVVSVLTVLHQDWLNGKEYKCKVSNKALPAPIEKTISKAKGQPREPQVYTLPPSREEMTKNQVSLTCLVKGFYPSDIAVEWESNGQPENNYKTTPPVLDSDGSFFLYSRLTVDKSRWQQGNVFSCSVMHEALHNHYTQKSLSLSPGK
light 2: DIQMTQSPSSLSASVGDRVTITCRASQGIRNDLGWYQQKPGKAPKRLIYGASSLQSGVPSRFSGSGSGTEFTLTISSLQPEDFATYYCLQHNSYPRTFGQGTTVEIKRTVAAPSVFIFPPSDEQLKSGTASVVCLLNNFYPREAKVQWKVDNALQSGNSQESVTEQDSKDSTYSLSSTLTLSKADYEKHKVYACEVTHQGLSSPVTKSFNRGEC
notes: also called bslgG1-huCD3-FEALxB7H4-C1-FEAR
Kd [7]: 5.1 nM
koff [7]: 0.0014 s⁻¹
kon [7]: 270000 M⁻¹ s⁻¹
